According to patent EP2843044A1, “Improved variant of D-psicose 3-epimerase and uses thereof” (Roquette Frères, priority 2013, dated 2015):
Changes are numbered by the printed parent chain. Numbers in names are those of the source.

B1: D-psicose 3-epimerase (DPEase) from Clostridium cellulolyticum, variant G211S, SEQ ID No 4 (Ruminiclostridium cellulolyticum H10; G211S) (protein)
chain: MKHGIYYAYWEQEWEADYKYYIEKVAKLGFDILEIAASPLPFYSDIQINELKACAHGNGITLTVGHGPSAEQNLSSPDPDIRKNAKAFYTDLLKRLYKLDVHLIGGALYSYWPIDYTKTIDKKGDWERSVESVREVAKVAEACGVDFCLEVLNRFENYLINTAQEGVDFVKQVDHNNVKVMLDTFHMNIEEDSIGGAIRTAGSYLGHLHTSECNRKVPGRGRIPWVEIGEALADIGYNGSVVMEPFVRMGGTVGSNIKVWRDISNGADEKMLDREAQAALDFSRYVLECHKHS
notes: made in house; host or cells: Bacillus subtilis WB600 (pMA5)
B2: D-psicose 3-epimerase (DPEase) from Clostridium cellulolyticum, variant G211L (Ruminiclostridium cellulolyticum H10; G211L) (protein)
chain: B1 chain with S211L
notes: as for B1
B3: D-psicose 3-epimerase (DPEase) from Clostridium cellulolyticum, wild type, SEQ ID No 2 (Ruminiclostridium cellulolyticum H10) (protein)
chain: B1 chain with S211G
notes: as for B1
B4: D-psicose 3-epimerase (DPEase) from Clostridium cellulolyticum, variant G211D (Ruminiclostridium cellulolyticum H10; G211D) (protein)
chain: B1 chain with S211D
notes: as for B1
B5: D-psicose 3-epimerase (DPEase) from Clostridium cellulolyticum, variant G211A (Ruminiclostridium cellulolyticum H10; G211A) (protein)
chain: B1 chain with S211A
notes: as for B1
B6: D-psicose 3-epimerase (DPEase) from Clostridium cellulolyticum, variant G211W (Ruminiclostridium cellulolyticum H10; G211W) (protein)
chain: B1 chain with S211W
notes: as for B1
B7: D-psicose 3-epimerase (DPEase) from Clostridium cellulolyticum, variant G211R (Ruminiclostridium cellulolyticum H10; G211R) (protein)
chain: B1 chain with S211R
notes: made in house

substrate: O=C(CO)[C@@H](O)[C@H](O)[C@H](O)CO; test: Determination of kinetic parameters of DPEase (HPLC assay of D-psicose formed); assay type: biochemical, Clostridium cellulolyticum; details: other: 50 mM Tris-HCl buffer (pH 8.0), 0.1mM Co^2+, 5-200mM substrate, 55 °C
Description: Kinetic parameters of DPEase variants were determined in 50 mM Tris-HCl buffer (pH 8.0) containing 0.1mM Co^2+ and 5-200mM substrate for reaction at 55 °C. The enzyme reactions were stopped after 10 min by boiling, and the amount of D-psicose was determined by the HPLC assay. Kinetic parameters, such as the Michaelis-Menten constant (Km) and turnover number (kcat) values for substrates, were obtained using the Lineweaver-Burk equation and quantification of enzyme concentration.
The concentrations of D-fructose and D-psicose were analyzed by HPLC equipped with a refractive index detector and a Ca^2+-carbohydrate column (Waters Sugar-Pak 1, Waters Corp., Milford, MA), which was eluted with water at 85 °C and 0.4 mL/min. Protein concentration was determined according to the method of Bradford using bovine serum albumin as a standard. SDS-PAGE was carried out according to the method of Laemmli. Gels (12% w/v polyacrylamide) were stained with Coomassie Brilliant Blue and destained with an aqueous mixture of 10% (v/v) methanol/10% (v/v) acetic acid. Table 1: Enzyme properties and kinetic parameters of the wild-type and mutant enzymes of DPEase from C. cellulolyticum for substrate D-psicose

Protein	kcat/Km [mM^-1 min ^-1]
B1	150.6
B2	73.2
B3	62.7
B4	86.7
B5	9.8
B6	68.1
B7	26.5
